The record followed here is patent publication US20160084821A1.

In this assay the target is BRCA1 protein (mouse) (mouse) (UniProt P48754). Put plainly: cell-based or functional assay.
Chain of UniProt P48754 (P48754 whole entry): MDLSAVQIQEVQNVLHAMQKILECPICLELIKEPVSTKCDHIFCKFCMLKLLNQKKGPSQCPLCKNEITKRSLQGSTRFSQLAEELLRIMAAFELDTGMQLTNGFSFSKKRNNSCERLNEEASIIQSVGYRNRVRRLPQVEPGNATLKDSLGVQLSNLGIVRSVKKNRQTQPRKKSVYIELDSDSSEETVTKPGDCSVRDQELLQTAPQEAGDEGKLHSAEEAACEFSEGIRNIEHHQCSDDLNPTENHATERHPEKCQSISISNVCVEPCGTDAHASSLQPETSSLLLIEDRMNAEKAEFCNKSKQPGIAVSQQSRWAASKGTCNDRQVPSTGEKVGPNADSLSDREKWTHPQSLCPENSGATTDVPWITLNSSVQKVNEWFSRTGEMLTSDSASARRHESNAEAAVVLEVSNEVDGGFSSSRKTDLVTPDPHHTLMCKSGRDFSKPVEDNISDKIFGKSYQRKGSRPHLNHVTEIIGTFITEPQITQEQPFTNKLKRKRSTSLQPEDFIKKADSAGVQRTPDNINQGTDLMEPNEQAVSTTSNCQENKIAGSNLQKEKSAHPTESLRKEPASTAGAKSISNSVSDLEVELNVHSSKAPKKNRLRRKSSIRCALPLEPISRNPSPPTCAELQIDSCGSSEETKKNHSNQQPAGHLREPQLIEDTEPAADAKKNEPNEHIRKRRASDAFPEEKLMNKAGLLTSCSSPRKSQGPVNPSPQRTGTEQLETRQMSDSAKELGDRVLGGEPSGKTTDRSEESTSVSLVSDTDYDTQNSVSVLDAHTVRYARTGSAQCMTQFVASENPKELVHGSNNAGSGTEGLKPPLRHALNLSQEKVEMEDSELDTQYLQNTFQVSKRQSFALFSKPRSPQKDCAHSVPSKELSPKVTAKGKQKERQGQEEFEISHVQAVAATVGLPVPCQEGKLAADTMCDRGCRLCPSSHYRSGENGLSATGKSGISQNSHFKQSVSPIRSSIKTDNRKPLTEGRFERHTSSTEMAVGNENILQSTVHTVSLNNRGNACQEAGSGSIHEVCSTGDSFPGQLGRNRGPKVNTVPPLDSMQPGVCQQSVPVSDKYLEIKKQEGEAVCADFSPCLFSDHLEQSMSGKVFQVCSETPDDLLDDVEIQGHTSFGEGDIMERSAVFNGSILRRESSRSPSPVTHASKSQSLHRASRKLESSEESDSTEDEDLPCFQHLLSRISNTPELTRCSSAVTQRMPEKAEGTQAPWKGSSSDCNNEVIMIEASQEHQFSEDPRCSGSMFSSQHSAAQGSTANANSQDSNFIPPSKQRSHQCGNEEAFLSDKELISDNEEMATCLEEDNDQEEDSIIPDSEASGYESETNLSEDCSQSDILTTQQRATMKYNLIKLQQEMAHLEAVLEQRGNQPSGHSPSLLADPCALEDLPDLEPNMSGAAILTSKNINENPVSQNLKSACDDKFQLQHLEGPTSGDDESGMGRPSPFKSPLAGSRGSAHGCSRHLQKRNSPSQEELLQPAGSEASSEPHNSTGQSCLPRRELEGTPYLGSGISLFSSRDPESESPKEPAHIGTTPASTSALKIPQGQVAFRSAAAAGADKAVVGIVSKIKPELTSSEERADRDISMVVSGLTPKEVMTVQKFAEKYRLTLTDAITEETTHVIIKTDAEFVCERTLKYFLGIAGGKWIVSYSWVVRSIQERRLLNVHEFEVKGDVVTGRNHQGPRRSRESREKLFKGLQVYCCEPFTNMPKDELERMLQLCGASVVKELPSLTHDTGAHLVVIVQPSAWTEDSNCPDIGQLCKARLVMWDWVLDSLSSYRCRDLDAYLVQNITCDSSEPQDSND

“FANCD2 protein (mouse, on meiotic chromosomes of spermatocytes) (from UniProt Q80V62 1-1450)”: the anti-FANCD2 foci co-localized with regions of intense anti-BRCA1 staining (20 pachytene nuclei) worked out at 65%.
